Article PMC6433275 (Nature structural & molecular biology, 2019)

Target: T1, E. coli MukB (E. coli, UniProt P22523 1-1486)
T1 sequence: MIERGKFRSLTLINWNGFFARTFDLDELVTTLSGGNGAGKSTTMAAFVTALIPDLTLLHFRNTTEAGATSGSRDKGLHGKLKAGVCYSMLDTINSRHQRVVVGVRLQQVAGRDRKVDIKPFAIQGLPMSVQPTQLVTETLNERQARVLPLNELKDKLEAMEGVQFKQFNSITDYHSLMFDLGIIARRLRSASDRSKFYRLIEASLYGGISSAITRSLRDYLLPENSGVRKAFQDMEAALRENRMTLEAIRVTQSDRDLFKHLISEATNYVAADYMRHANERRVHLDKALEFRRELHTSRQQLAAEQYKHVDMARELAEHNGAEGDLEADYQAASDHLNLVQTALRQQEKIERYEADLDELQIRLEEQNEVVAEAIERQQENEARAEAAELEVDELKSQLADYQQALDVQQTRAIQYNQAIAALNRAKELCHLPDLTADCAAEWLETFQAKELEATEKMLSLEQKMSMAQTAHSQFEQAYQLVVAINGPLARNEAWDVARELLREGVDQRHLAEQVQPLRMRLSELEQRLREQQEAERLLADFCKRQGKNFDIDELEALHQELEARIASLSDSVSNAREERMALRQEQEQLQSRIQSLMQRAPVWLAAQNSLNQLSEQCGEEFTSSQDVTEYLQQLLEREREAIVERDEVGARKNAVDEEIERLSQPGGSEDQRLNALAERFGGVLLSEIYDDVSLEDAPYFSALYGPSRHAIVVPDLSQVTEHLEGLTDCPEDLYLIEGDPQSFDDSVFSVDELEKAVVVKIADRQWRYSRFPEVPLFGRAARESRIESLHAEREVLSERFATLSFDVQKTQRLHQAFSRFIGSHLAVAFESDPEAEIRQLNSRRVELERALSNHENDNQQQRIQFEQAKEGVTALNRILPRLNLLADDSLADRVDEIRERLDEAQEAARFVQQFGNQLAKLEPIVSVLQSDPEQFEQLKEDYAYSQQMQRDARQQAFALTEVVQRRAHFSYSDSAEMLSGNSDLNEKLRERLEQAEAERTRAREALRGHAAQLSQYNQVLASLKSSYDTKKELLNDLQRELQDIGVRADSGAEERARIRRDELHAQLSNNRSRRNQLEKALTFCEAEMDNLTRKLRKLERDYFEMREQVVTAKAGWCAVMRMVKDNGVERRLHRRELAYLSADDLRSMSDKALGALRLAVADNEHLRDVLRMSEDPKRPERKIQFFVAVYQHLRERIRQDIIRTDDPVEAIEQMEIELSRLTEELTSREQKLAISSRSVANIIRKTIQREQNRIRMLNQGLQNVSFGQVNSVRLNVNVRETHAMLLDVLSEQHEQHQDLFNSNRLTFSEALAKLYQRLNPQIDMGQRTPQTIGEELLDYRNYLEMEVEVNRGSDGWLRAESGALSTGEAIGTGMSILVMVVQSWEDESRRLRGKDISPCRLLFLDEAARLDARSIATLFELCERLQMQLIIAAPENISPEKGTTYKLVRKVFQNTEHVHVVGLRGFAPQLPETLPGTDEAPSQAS
Assay: SEC

B1: E. coli MukEF complex (complex)
chain 1: MSSTNIEQVMPVKLAQALANPLFPALDSALRSGRHIGLDELDNHAFLMDFQEYLEEFYARYNVELIRAPEGFFYLRPRSTTLIPRSVLSELDMMVGKILCYLYLSPERLANEGIFTQQELYDELLTLADEAKLLKLVNNRSTGSDVDRQKLQEKVRSSLNRLRRLGMVWFMGHDSSKFRITESVFRFGADVRAGDDPREAQRRLIRDGEAMPIENHLQLNDETEENQPDSGEEE
chain 2: MSEFSQTVPELVAWARKNDFSISLPVDRLSFLLAVATLNGERLDGEMSEGELVDAFRHVSDAFEQTSETIGVRANNAINDMVRQRLLNRFTSEQAEGNAIYRLTPLGIGITDYYIRQREFSTLRLSMQLSIVAGELKRAADAAEEGGDEFHWHRNVYAPLKYSVAEIFDSIDLTQRLMDEQQQQVKDDIAQLLNKDWRAAISSCELLLSETSGTLRELQDTLEAAGDKLQANLLRIQDATMTHDDLHFVDRLVFDLQSKLDRIISWGQQSIDLWIGYDRHVHKFIRTAIDMDKNRVFAQRLRQSVQTYFDEPWALTYANADRLLDMRDEEMALRDEEVTGELPEDLEYEEFNEIREQLAAIIEEQLAVYKTRQVPLDLGLVVREYLSQYPRARHFDVARIVIDQAVRLGVAQADFTGLPAKWQPINDYGAKVQAHVIDKY
Does B1 bind?
Result: binds
